Laboratory results: PMC10397247
Blank lines part the entries; values can stand above or below the binder they belong to.

Assays:
4H741-bH = target: T1, 4H741-bH; test: two-hybrid library CCNG1;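 note: natural log of median RNA to DNA barcode read ratio; higher means stronger binding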
T1 chain: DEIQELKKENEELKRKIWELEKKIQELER

4H40-bH = target: T2, 4H40-bH; test: two-hybrid library CCNG1;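 note: natural log of median RNA to DNA barcode read ratio; higher means stronger binding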
T2 chain: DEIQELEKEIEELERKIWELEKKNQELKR

4H492-bH = target: T3, 4H492-bH; test: two-hybrid library CCNG1;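 note: natural log of median RNA to DNA barcode read ratio; higher means stronger binding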
T3 chain: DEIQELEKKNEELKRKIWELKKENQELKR

4H477-bH = target: T4, 4H477-bH; test: two-hybrid library CCNG1;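 note: natural log of median RNA to DNA barcode read ratio; higher means stronger binding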
T4 chain: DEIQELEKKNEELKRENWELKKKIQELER

4H348-bH = target: T5, 4H348-bH; test: two-hybrid library CCNG1;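 note: natural log of median RNA to DNA barcode read ratio; higher means stronger binding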
T5 chain: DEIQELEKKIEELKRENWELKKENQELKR

O9 [1] = target: T6, O9; test: two-hybrid library CCNG1;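 note: natural log of median RNA to DNA barcode read ratio; higher means stronger binding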
T6 chain: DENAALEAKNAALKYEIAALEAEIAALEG

O8 = target: T7, O8; test: two-hybrid library CCNG1
T7 chain: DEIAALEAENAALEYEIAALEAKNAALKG

P7 = target: T8, P7; test: two-hybrid library CC1
T8 chain: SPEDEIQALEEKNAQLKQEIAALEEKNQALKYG

P8mS = target: T9, P8mS; test: two-hybrid library CC1; conditions: mean of both orientations
T9 chain: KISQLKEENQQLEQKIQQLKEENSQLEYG

P7mS = target: T10, P7mS; test: two-hybrid library CC1; conditions: mean of both orientations
T10 chain: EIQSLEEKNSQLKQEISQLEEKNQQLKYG

P8 = target: T11, P8; test: two-hybrid library CC1; conditions: mean of both orientations
T11 chain: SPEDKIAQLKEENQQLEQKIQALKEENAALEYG

P9 = target: T12, P9; test: two-hybrid library CC1; conditions: mean of both orientations
T12 chain: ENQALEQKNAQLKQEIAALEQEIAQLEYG

4H454-AA = target: T13, 4H454-AA; test: two-hybrid library CCmax; conditions: mean of both orientations
T13 chain: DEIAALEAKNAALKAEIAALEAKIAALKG

4H3921-AA = target: T14, 4H3921-AA; test: two-hybrid library CCmax; conditions: mean of both orientations
T14 chain: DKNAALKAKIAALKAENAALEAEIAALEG

4H2354-AA = target: T15, 4H2354-AA; test: two-hybrid library CCmax; conditions: mean of both orientations
T15 chain: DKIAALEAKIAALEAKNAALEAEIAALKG

4H3627-AA = target: T16, 4H3627-AA; test: two-hybrid library CCmax; conditions: mean of both orientations
T16 chain: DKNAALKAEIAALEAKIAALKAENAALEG

4H234-AA = target: T17, 4H234-AA; test: two-hybrid library CCmax; conditions: mean of both orientations
T17 chain: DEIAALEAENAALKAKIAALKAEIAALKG

4H2754-AA = target: T18, 4H2754-AA; test: two-hybrid library CCmax; conditions: mean of both orientations
T18 chain: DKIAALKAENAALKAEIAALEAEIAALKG

4H2837-AA = target: T19, 4H2837-AA; test: two-hybrid library CCmax; conditions: mean of both orientations
T19 chain: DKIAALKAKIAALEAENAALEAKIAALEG

4H3844-AA = target: T20, 4H3844-AA; test: two-hybrid library CCmax; conditions: mean of both orientations
T20 chain: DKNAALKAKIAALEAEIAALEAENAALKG

4H993-AA = target: T21, 4H993-AA; test: two-hybrid library CCmax; conditions: mean of both orientations
T21 chain: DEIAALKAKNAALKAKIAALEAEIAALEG

4H605-AA = target: T22, 4H605-AA; test: two-hybrid library CCmax; conditions: mean of both orientations
T22 chain: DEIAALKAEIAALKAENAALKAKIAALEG

4H566-AA = target: T23, 4H566-AA; test: two-hybrid library CCmax; conditions: mean of both orientations
T23 chain: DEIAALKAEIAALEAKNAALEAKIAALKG

4H3343-AA = target: T24, 4H3343-AA; test: two-hybrid library CCmax; conditions: mean of both orientations
T24 chain: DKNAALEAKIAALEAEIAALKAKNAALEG

4H2505-AA = target: T25, 4H2505-AA; test: two-hybrid library CCmax; conditions: mean of both orientations
T25 chain: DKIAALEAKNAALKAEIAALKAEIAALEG

4H335-AA = target: T26, 4H335-AA; test: two-hybrid library CCmax; conditions: mean of both orientations
T26 chain: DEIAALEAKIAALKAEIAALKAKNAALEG

4H2617-AA = target: T27, 4H2617-AA; test: two-hybrid library CCmax; conditions: mean of both orientations
T27 chain: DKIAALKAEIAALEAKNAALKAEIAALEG

4H881-AA = target: T28, 4H881-AA; test: two-hybrid library CCmax; conditions: mean of both orientations
T28 chain: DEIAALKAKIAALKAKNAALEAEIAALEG

4H2393-AA = target: T29, 4H2393-AA; test: two-hybrid library CCmax
T29 chain: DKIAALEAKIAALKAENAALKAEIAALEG

4H906-AA = target: T30, 4H906-AA; test: two-hybrid library CCmax; conditions: mean of both orientations
T30 chain: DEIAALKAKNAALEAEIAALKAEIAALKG

4H3112-AA = target: T31, 4H3112-AA; test: two-hybrid library CCmax; conditions: mean of both orientations
T31 chain: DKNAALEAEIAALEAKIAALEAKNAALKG

4H2949-AA = target: T32, 4H2949-AA; test: two-hybrid library CCmax; conditions: mean of both orientations
T32 chain: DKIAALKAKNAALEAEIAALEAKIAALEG

4H317-AA = target: T33, 4H317-AA; test: two-hybrid library CCmax; conditions: mean of both orientations
T33 chain: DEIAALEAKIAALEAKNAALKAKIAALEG

4H2729-AA = target: T34, 4H2729-AA; test: two-hybrid library CCmax; conditions: mean of both orientations
T34 chain: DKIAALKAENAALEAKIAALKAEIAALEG

4H794-AA = target: T35, 4H794-AA; test: two-hybrid library CCmax; conditions: mean of both orientations
T35 chain: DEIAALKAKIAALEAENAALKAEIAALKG

4H2642-AA = target: T36, 4H2642-AA; test: two-hybrid library CCmax; conditions: mean of both orientations
T36 chain: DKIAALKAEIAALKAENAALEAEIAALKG

4H678-AA = target: T37, 4H678-AA; test: two-hybrid library CCmax; conditions: mean of both orientations
T37 chain: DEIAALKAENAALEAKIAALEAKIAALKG

4H2944-AA = target: T38, 4H2944-AA; test: two-hybrid library CCmax; conditions: mean of both orientations
T38 chain: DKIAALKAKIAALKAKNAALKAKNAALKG

4H342-AA = target: T39, 4H342-AA; test: two-hybrid library CCmax; conditions: mean of both orientations
T39 chain: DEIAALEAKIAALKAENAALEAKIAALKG

4H3427-AA = target: T40, 4H3427-AA; test: two-hybrid library CCmax; conditions: mean of both orientations
T40 chain: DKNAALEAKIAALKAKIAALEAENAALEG

4H3655-AA = target: T41, 4H3655-AA; test: two-hybrid library CCmax; conditions: mean of both orientations
T41 chain: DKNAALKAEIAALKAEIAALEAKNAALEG

4H780-AA = target: T42, 4H780-AA; test: two-hybrid library CCmax
T42 chain: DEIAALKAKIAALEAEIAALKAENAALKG

4H48-AA = target: T43, 4H48-AA; test: two-hybrid library CCmax; conditions: mean of both orientations
T43 chain: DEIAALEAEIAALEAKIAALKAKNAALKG

4H2466-AA = target: T44, 4H2466-AA; test: two-hybrid library CCmax; conditions: mean of both orientations
T44 chain: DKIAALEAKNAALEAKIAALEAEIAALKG

4H3606-AA = target: T45, 4H3606-AA; test: two-hybrid library CCmax; conditions: mean of both orientations
T45 chain: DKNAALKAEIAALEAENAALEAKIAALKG

4H2575-AA = target: T46, 4H2575-AA; test: two-hybrid library CCmax; conditions: mean of both orientations
T46 chain: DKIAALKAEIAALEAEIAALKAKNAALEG

4H2883-AA = target: T47, 4H2883-AA; test: two-hybrid library CCmax; conditions: mean of both orientations
T47 chain: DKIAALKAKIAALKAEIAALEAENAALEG

4H2277-AA = target: T48, 4H2277-AA; test: two-hybrid library CCmax
T48 chain: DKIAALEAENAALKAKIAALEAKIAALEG

4H429-AA = target: T49, 4H429-AA; test: two-hybrid library CCmax; conditions: mean of both orientations
T49 chain: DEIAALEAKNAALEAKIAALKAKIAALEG

4H717-AA = target: T50, 4H717-AA; test: two-hybrid library CCmax; conditions: mean of both orientations
T50 chain: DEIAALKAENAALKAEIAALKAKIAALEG

O9 [2] = target: T51, O9; test: two-hybrid library CC0; conditions: mean of both orientations
T51 chain: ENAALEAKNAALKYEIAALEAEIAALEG

4H477-bN = target: T52, 4H477-bN; test: two-hybrid library CCNG1
T52 chain: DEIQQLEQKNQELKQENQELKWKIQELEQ

4H754-bH = target: T53, 4H754-bH; test: two-hybrid library CCNG1
T53 chain: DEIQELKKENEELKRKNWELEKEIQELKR

4H741-bN = target: T54, 4H741-bN; test: two-hybrid library CCNG1
T54 chain: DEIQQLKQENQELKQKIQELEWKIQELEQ

4H492-bN = target: T55, 4H492-bN; test: two-hybrid library CCNG1
T55 chain: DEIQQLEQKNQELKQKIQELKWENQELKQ

4H40-bN = target: T56, 4H40-bN; test: two-hybrid library CCNG1
T56 chain: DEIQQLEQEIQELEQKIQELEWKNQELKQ

4H348-bN = target: T57, 4H348-bN; test: two-hybrid library CCNG1
T57 chain: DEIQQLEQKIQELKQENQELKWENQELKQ

Binder: SPEDEIQALEEKNAQLKQEIAALEEKNQALKYG [P7]
interaction score (P7): -2.29
interaction score (P8mS): 0.223
interaction score (P7mS): -2.52
interaction score (P8): 0.391
interaction score (P9): -2.07

Binder: ENAALEAKNAALKYEIAALEAEIAALEG [O9]
interaction score (O9 [2]): -2.72

Binder: DEIQQLEQKIQELKQENQELKWENQELKQ [4H348-bN]
interaction score (4H477-bN): -1.82
interaction score (4H754-bH): -0.689
interaction score (4H741-bN): -0.495
interaction score (4H492-bN): 0.214
interaction score (4H40-bN): -1
interaction score (4H348-bN): -1.05

Continued, values first:

interaction score (4H741-bH): 1.04
interaction score (4H40-bH): -0.14
interaction score (4H492-bH): -0.683
interaction score (4H477-bH): 0.107
interaction score (4H348-bH): 0.666
Binder: DEIQELEKKIEELKRENWELKKENQELKR [4H348-bH]

interaction score (O9 [1]): -1.9
interaction score (O8): -2.07
Binder: DEIAALEAENAALEYEIAALEAKNAALKG [O8]

interaction score (4H454-AA): 1.29
interaction score (4H3921-AA): -1.56
interaction score (4H2354-AA): -1.26
interaction score (4H3627-AA): -1.28
interaction score (4H234-AA): -0.0407
interaction score (4H2754-AA): 0.512
interaction score (4H2837-AA): -1.08
interaction score (4H3844-AA): -1.39
interaction score (4H993-AA): 0.398
interaction score (4H605-AA): -1.38
interaction score (4H566-AA): -0.827
interaction score (4H3343-AA): -1.26
interaction score (4H2505-AA): -0.635
interaction score (4H335-AA): -1.2
interaction score (4H2617-AA): -1.68
interaction score (4H881-AA): -1.05
interaction score (4H2393-AA): -1.39
interaction score (4H906-AA): -1.51
interaction score (4H3112-AA): -1.43
interaction score (4H2949-AA): 0.749
interaction score (4H317-AA): -1.02
interaction score (4H2729-AA): 0.856
interaction score (4H794-AA): -1.24
interaction score (4H2642-AA): -0.59
interaction score (4H678-AA): 0.351
interaction score (4H2944-AA): -1.56
interaction score (4H342-AA): -0.907
interaction score (4H3427-AA): -1.51
interaction score (4H3655-AA): -1.32
interaction score (4H780-AA): -1.36
interaction score (4H48-AA): -1.36
interaction score (4H2466-AA): -1.07
interaction score (4H3606-AA): -1.85
interaction score (4H2575-AA): -1.59
interaction score (4H2883-AA): -1.6
interaction score (4H2277-AA): 1.95
interaction score (4H429-AA): -0.713
interaction score (4H717-AA): -0.927
Binder: DKIAALEAENAALKAKIAALEAKIAALEG [4H2277-AA]
